T1: M1′ peptide 7 (human)
T1 peptide: GQQQGLPRAAGGSVP

T2: M1' peptide 6
T2 construct: see f1
T2 peptide: VLCHSGQQQGLPRAA

T3: M1′ peptide 5 (human)
T3 peptide: RAPDRVLCHSGQQQG

T4: M1' peptide 12
T4 construct: see f1
T4 peptide: ADWPGPPELDVCVEE

T5: M1′ peptide 8 (human)
T5 peptide: PRAAGGSVPHPRCH

T6: M1' peptide 14
T6 construct: see f1
T6 peptide: VCVEEAEGEAPWTWT

T7: M1' peptide 9
T7 construct: see f1
T7 peptide: GGSVPHPRCHCGAGR

T8: M1' peptide 3
T8 construct: see f1
T8 peptide: GLAGGSAQSQRAPDR

T9: M1' peptide 15
T9 construct: see f1
T9 peptide: AEGEAPWTWTGLCIF

T10: M1' peptide 10
T10 construct: see f1
T10 peptide: HPRCHCGAGRADWPG

T11: M1' peptide 2
T11 construct: see f1
T11 peptide: TVQRAVSVNPGLAGG

T12: M1' peptide 13
T12 construct: see f1
T12 peptide: PPELDVCVEEAEGEA

T13: M1' peptide 1
T13 peptide: ASPSQTVQRAVSVNP

T14: M1' peptide 11
T14 construct: see f1
T14 peptide: CGAGRADWPGPPELD

T15: M1′ peptide 4 (human)
T15 peptide: SAQSQRAPDRVLCHS


Legend:
[1] = target: T16, human IgE CH3-CH4-M1′/Fc fusion protein (human); experiment: SPR Biacore A100, M1′ immobilized
T16 construct: also called M1′ (immobilized)

[2] = target: T1, M1′ peptide 7; experiment: ELISA on coated antigen, relative OD450/650
Description: (§1) 15 peptides were generated spanning the sequence surrounding and including human M1′ (Clifford Quan) (FIG. 5A). Peptides were resuspended in either dH20 or 50% DMSO. […] 0.05% Tween-20, 10 ppm Proclin., 0.2% BgG, 0.25% Chaps, 5 mM EDTA, 0.35M NaCl]. […] Plates were then incubated for 2 hours at room temperature. Murine antibody plates were washed 3 times and then anti-mouse IgG1-Biotin (BD Biosciences (A85-1) #553441) was added (1:10,000, 100 μl per well) and incubated for 1 hour at RT. Following 3 washes, SA-HRP (BD Biosciences #554066) was added (1:20,000, 100 μl per well) and incubated for 1 hour. Human IgG1 antibody plates were washed as before and anti-hulgG.Fc-HRP (Jackson ImmunoResearch (#109-036-098)) was added (1:10,000, 100 μl per well) and incubated for 1 hour at RT. Once secondary incubations were complete, plates were washed 6 times and TMB substrate (BD OptEIA #555214) was added (100 μl per well). The substrate-HRP reaction was stopped with 1M H3PO4 after ˜4 minutes. Plates were then read at 450/650. Data was represented as relative OD (OD₄₅₀/CD650).

[3] = target: T2, M1' peptide 6; experiment: ELISA on coated antigen, relative OD450/650
Description: as §1

[4] = target: T3, M1′ peptide 5; experiment: ELISA on coated antigen, relative OD450/650
Description: as §1

[5] = target: T4, M1' peptide 12; experiment: ELISA on coated antigen, relative OD450/650
Description: as §1

[6] = target: T5, M1′ peptide 8; experiment: ELISA on coated antigen, relative OD450/650
Description: as §1

[7] = target: T6, M1' peptide 14; experiment: ELISA on coated antigen, relative OD450/650
Description: as §1

[8] = target: T7, M1' peptide 9; experiment: ELISA on coated antigen, relative OD450/650
Description: as §1

[9] = target: T8, M1' peptide 3; experiment: ELISA on coated antigen, relative OD450/650
Description: as §1

[10] = target: T9, M1' peptide 15; experiment: ELISA on coated antigen, relative OD450/650
Description: as §1

[11] = target: T10, M1' peptide 10; experiment: ELISA on coated antigen, relative OD450/650
Description: as §1

[12] = target: T11, M1' peptide 2; experiment: ELISA on coated antigen, relative OD450/650
Description: as §1

[13] = target: T12, M1' peptide 13; experiment: ELISA on coated antigen, relative OD450/650
Description: as §1

[14] = target: T13, M1' peptide 1; experiment: ELISA on coated antigen, relative OD450/650
Description: as §1

[15] = target: T14, M1' peptide 11; experiment: ELISA on coated antigen, relative OD450/650
Description: as §1

[16] = target: T15, M1′ peptide 4; experiment: ELISA on coated antigen, relative OD450/650
Description: as §1

[17] = target: T17, human IgE with the M1′ sequence (long form of membrane IgE) expressed on transduced BJAB or Daudi cells (human, UniProt P01854 116-546); experiment: competitive ECL binding on BJAB-IgE/M1′ cells vs biotinylated 26A11 or 47H4, 1st IC50 column
T17 construct: Full-length heavy and light chains of the U266 IgE B cell receptor, retrovirally expressed; also called IgE/M1′; IgE-M1′

[18] = target: T17, human IgE with the M1′ sequence (long …); experiment: number printed in the titration panel; FIG. 3M calls these numbers 'Scatchard Results' (BJAB-Long cells)
Description: In addition to relative affinity determinations by antibody titration and FACs detection, we also determined affinities of selected anti-MP antibodies to BJAB cell lines expressing IgE long form using Scatchard analysis. BJAB-Long cells were prepared for binding in cold Binding buffer composed of base media, with 10 mM HEPES pH 7.4, and 2% FBS as well as 40 μg/ml human IgG. Cells were diluted to a concentration of 1.7×10⁶ cells/ml, and kept on ice until added to the assay. The antibodies were iodinated with Iodogen method. Various concentrations of unlabelled antibody were prepared in triplicate, using a 1:2 dilution starting with the saturation concentration and ending at a concentration of zero, with a total of 14 concentrations. Iodinated antibody of a single concentration was added to all dilutions of the competitor unlabelled antibody. Lastly 250,000 BJAB-Long cells were added to each mixture of iodinated and unlabelled antibody. The samples were incubated at 4° C. for 4 hours, shaking. Each sample was then collected and filtered on a membrane, washed at least 3 times with binding buffer, allowed to dry and then measured for 1 minute using a Perkin Elmer Wizard 1470 Auto Gamma Counter.

[19] = target: T16, human IgE CH3-CH4-M1′/Fc fusion protein; experiment: SPR Biacore 2000, IgG immobilized, M1′-Fc analyte
[20] = target: T17, human IgE with the M1′ sequence (long …); experiment: Scatchard analysis on cells expressing human IgE/M1′
Description: The BJAB or Daudi cells expressing various forms of IgE with or without M1′ (Human, Rhesus, Cyno) were prepared for binding in cold Binding buffer composed of base media, with 10 mM HEPES pH 7.4, and 2% FBS as well as 40 ug/ml human IgG. Cells are diluted to concentration of 1.7×10⁶ cells/ml, and kept on ice until they are added to the assay. The proteins/antibodies are iodinated with the Iodogen method. Various concentrations of cold protein are prepared in triplicate, using a 1:2 dilution starting with the saturation concentration and ending at a concentration of zero, with a total of 14 concentrations. Hot protein of a single concentration is added to all dilutions compete with the cold protein. Lastly the cells are added to the hot and cold protein mixture, 250,000 cells per sample were used. Assay is kept at 4° C. for 4 hours, shaking. Each sample is then collected and filtered on membrane, washed at least 3 times with binding buffer, allowed to dry and then counted for 1 minute using Perkin Elmer Wizard 1470 Auto Gamma Counter.

[21] = target: T17, human IgE with the M1′ sequence (long …); experiment: competitive ECL binding on BJAB-IgE/M1′ cells vs biotinylated 26A11 or 47H4, 2nd IC50 column
[22] = target: T17, human IgE with the M1′ sequence (long …); experiment: Scatchard, iodinated antibody on IgE/M1′ cells

T16 sequence (chain, as listed by the source limits assumed): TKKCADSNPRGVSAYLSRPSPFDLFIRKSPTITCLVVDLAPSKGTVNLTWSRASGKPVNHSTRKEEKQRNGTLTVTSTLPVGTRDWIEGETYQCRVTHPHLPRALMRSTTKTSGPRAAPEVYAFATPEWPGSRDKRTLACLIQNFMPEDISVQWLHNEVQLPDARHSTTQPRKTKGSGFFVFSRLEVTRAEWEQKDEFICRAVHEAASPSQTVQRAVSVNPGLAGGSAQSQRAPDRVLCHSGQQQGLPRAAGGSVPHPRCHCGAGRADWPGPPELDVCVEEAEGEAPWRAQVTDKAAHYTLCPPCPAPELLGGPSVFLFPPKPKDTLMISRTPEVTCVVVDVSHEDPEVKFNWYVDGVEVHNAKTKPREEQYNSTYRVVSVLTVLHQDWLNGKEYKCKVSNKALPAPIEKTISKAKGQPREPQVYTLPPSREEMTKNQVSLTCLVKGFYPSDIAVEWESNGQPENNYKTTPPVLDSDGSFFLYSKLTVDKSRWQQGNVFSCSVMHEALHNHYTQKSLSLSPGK
T17 sequence (P01854 116-546 I515L limits assumed): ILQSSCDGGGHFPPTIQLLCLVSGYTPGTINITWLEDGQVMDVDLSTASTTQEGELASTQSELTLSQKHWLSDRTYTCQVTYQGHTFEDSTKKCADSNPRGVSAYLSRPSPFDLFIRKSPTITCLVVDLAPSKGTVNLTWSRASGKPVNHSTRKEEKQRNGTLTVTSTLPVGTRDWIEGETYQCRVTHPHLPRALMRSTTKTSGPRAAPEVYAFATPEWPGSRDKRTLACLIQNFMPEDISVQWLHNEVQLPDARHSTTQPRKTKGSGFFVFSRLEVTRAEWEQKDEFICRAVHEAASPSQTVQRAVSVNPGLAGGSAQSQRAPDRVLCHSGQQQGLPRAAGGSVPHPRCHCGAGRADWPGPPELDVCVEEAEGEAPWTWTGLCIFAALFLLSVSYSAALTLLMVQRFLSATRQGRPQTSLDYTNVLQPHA

Binder	Kd [1] [nM]	binding result [2]	binding result [3]	binding result [4]	binding result [5]	binding result [6]	binding result [7]	binding result [8]	binding result [9]	binding result [10]	binding result [11]	binding result [12]	binding result [13]	binding result [14]	binding result [15]	binding result [16]	IC50 [17] [nM]	Kd [18] [nM]	Kd [20] [nM]	other results
humanized anti-IgE/M1′ antibody 7A6.v1 (antibody, V domains shown, direct CDR graft, huIgG1; also called 7A6v1 huIgG1; 7A67v1 [sic]) VH: EVQLVESGGGLVQPGGSLRLSCAASGYTFIDYEMHWVRQAPGKGLEWVGAIDPETGTTAYNQKFKGRFTISADTSKNTAYLQMNSLRAEDTAVYYCTRLRPHYDYDNAMDSWGQGTLVTVSS VL: DIQMTQSPSSLSASVGDRVTITCKSSQTLLYSTNQKNYLAWYQQKPGKAPKLLIYWASTRESGVPSRFSGSGSGTDFTLTISSLQPEDFATYYCQQYYSYPYTFGQGTKVEIKR	15	no binding	no binding	binds	no binding	no binding	no binding	no binding	no binding	no binding	no binding	no binding	no binding	no binding	no binding	binds	39	–	–	–
humanized anti-IgE/M1′ antibody 26A11.v6 (antibody, V domains shown, huIgG1; also called 26A11v6 huIgG1) VH: EVQLVESGGGLVQPGGSLRLSCAASGYTFTDYYIMWVRQAPGKGLEWVGDINPNNYDTSYNQKFKGRFTISADTSKNTAYLQMNSLRAEDTAVYYCASKAYWGQGTLVTVSS VL: DIQMTQSPSSLSASVGDRVTITCRSSQDISNYLNWYQQKPGKAPKLLIYSTSRLHSGVPSRFSGSGSGTDFTLTISSLQPEDFATYYCQQGHTLPWTFGQGTKVEIKR	2.6	binds	no binding	no binding	no binding	binds	no binding	no binding	no binding	no binding	no binding	no binding	no binding	no binding	no binding	no binding	11	–	1.85	Kd [19]: 8.3 nM; IC50 [21]: 23 nM

More lines, main results first:

Kd [1] [nM]	binding result [2]	binding result [3]	binding result [4]	binding result [5]	binding result [6]	binding result [7]	binding result [8]	binding result [9]	binding result [10]	binding result [11]	binding result [12]	binding result [13]	binding result [14]	binding result [15]	binding result [16]	IC50 [17] [nM]	Kd [18] [nM]	Kd [20] [nM]	Binder	other results
–	–	–	–	–	–	–	–	–	–	–	–	–	–	–	–	–	16.8	–	murine anti-IgE/M1′ antibody 45C1 (antibody, V domains shown, murine hybridoma antibody; also called 45C1.6.14) VH: QIQLVQSGPELKKPGETVKISCKASGYTFTNYGMNWVKQAPGKGLKWMGWINTYTGEPTYVDDFKGRFAFSLETSASTAYLQINNLKNEDMATYFCARGIYYDNDDIYWGQGTILTVSS VL: not shown	–
–	–	–	–	–	–	–	–	–	–	–	–	–	–	–	–	–	2.7	–	murine anti-IgE/M1′ antibody 1C11 (antibody, V domains shown, murine hybridoma antibody; also called 1C11.10.20) VH: QVQLQQSGAELVRPGASVTLSCKASGYTFTDFEMHWVKQTPVHGLEWIGAIAPETGTSAYNQKFRGKATLTADISSSTAYMDLRSLTSEDSAVYYCTIYYAAPWFAYWGQGTLVTVSS VL: DIVMSQSPSSLAVSVGEKVTMSCKSSQSLLYSSNQKNYLAWYQQKPGQSPKLLIYWASTRESGVPDRFTGSGSVTDFPLTISSVKAEDLAVYYCQQYYSYPYTFGGGTKVEIKR	–
4.5	–	–	binds	–	–	–	–	–	–	–	–	–	–	–	binds	52	–	0.64	murine anti-IgE/M1′ antibody 7A6 (antibody, V domains shown, mIgG1 hybridoma antibody; also called mu7A6; 7A6 mIgG1) VH: QVQLQQSGAELVRPGASVTLSCKASGYTFIDYEMHWVKQTPVHGLEWIGAIDPETGTTAYNQKFKGKATLTAAKSSSTAYMELRSLTSEDSAVYYCTRLRPHYDYDNAMDSWGQGTTLTVSS VL: DIVMSQSPSSLTVSVGEKVTLSCKSSQTLLYSTNQKNYLAWYQQKPGQSPKLLIYWASTRESGVPDRFTGSGSGTDFTLTISSVKAEDLAVYYCQQYYSYPYTFGGGTKVEIKR	Kd [22]: 0.6 nM
